{
  "source": "patent US20120230990A1",
  "about": "(MERCK SERONO, published 2012)",
  "key": {"[1]": {"target": "T1, murine IL-22RA on cells (HEPA1-6 hepatoma cells, BaF3 cells transfected with murine IL-22RA and IL-10RB) (murine, UniProt Q80XZ4 16-581)", "T1 sequence (looked up)": "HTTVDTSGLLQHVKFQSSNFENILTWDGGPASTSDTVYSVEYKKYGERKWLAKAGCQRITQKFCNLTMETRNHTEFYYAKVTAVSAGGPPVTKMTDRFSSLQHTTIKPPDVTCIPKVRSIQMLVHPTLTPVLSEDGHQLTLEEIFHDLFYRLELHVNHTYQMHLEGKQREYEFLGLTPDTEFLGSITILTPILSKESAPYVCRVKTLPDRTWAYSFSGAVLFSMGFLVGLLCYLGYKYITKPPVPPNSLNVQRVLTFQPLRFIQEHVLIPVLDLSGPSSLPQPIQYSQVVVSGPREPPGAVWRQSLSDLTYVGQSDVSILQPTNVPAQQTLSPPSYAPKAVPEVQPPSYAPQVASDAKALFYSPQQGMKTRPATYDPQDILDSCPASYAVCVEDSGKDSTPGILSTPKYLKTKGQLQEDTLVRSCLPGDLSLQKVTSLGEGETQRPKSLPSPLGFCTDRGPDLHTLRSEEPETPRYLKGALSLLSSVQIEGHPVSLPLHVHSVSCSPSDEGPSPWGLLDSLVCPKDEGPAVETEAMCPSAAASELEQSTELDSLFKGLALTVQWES", "assay": "cell-based or functional assay"}, "[2]": {"target": "T2, human IL-22RA on cells (HepG2 hepatoma cells, normal human keratinocytes, BaF3 cells transfected with human … (human, UniProt Q8N6P7 16-574))", "T2 sequence": "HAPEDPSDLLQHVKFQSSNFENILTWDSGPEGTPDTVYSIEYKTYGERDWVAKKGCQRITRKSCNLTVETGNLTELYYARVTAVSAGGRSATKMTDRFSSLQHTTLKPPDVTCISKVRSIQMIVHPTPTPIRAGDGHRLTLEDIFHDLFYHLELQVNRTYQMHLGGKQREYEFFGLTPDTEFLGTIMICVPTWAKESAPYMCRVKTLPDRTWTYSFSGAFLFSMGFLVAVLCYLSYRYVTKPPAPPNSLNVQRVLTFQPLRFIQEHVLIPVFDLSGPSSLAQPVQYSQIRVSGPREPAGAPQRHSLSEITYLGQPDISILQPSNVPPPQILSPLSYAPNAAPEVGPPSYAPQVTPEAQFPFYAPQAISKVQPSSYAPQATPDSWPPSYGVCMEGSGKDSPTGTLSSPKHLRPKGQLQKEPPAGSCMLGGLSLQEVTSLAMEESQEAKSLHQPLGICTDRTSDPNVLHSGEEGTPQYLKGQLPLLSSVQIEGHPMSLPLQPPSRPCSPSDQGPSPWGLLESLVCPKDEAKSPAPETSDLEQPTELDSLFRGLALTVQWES", "assay": "cell-based or functional assay"}, "[3]": {"target": "T3, human IL-20 receptor alpha (human, UniProt Q9UHF4 30-250, limits assumed)", "T3 construct": "also called hIL-20R; IL-20R alpha", "T3 sequence (looked up)": "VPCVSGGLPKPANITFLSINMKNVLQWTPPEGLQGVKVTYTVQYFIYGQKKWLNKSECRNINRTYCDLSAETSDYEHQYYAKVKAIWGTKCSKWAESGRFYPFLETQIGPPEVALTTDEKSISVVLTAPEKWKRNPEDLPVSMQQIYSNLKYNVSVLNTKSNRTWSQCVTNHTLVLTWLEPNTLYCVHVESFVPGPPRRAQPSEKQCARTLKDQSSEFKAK", "assay": "competitive ELISA: biotinylated 280-346-TSY on plate-coated human IL-22RA-ECD, soluble competitor titrated, peroxidase-conjugated streptavidin, OD 450nm", "procedure": "(§1) FIG. 23 reports the results of a competitive ELISA done to measure the specificity of 280.346.TSY to human IL-22RA. Microtiter plates were coated with human IL-22RA-ECD (i.e. IL-22RA-Extra Cellular Domain). Biotinylated 280-346-TSY antibody was added to the plate in the presence of competitors: human interleukin 22 receptor alpha (hIL-22RA), human IL-22 binding protein (hIL-22BP), murine IL-22 receptor alpha (mIL-22RA), human IL-10 receptor alpha (hIL-10R) and human IL-20 receptor alpha (hIL-20R).\n(§2) Specificity and binding affinity of 280.346.TSY was determined using a competitive ELISA. Microtiter plates were coated with human IL-22RA-ECD (i.e. IL-22RA-Extra Cellular Domain). Biotinylated 280-346-TSY antibody was added to the plate in the presence of competitors: human interleukin 22 receptor alpha (hIL-22RA), human IL-22 binding protein (hIL-22BP), mouse IL-22 receptor alpha (mIL-22RA), human IL-10 receptor alpha (hIL-10R) and human IL-20 receptor alpha (hIL-20R)."}, "[4]": {"target": "T4, human IL-22 binding protein (human, UniProt Q969J5-2 22-231, limits assumed)", "T4 construct": "also called hIL-22BP; IL-22BP", "T4 sequence (looked up)": "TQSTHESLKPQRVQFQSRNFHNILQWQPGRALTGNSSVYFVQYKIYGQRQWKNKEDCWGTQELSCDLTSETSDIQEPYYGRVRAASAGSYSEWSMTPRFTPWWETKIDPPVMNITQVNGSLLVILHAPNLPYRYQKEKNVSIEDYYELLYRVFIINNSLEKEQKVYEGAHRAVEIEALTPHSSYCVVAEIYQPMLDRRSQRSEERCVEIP", "assay": "competitive ELISA: biotinylated 280-346-TSY on plate-coated human IL-22RA-ECD, soluble competitor titrated, peroxidase-conjugated streptavidin, OD 450nm", "procedure": "as §1, §2"}, "[5]": {"target": "T5, human IL-10 receptor alpha (human, UniProt Q13651 22-235, limits assumed)", "T5 construct": "also called hIL-10R; IL-10R alpha", "T5 sequence (looked up)": "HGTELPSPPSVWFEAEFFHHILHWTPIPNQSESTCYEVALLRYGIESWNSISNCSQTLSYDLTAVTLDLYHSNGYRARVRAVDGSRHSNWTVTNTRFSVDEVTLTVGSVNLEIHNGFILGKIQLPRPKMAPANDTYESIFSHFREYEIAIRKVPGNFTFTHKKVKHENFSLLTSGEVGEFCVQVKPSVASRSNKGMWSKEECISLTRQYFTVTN", "assay": "competitive ELISA: biotinylated 280-346-TSY on plate-coated human IL-22RA-ECD, soluble competitor titrated, peroxidase-conjugated streptavidin, OD 450nm", "procedure": "as §1, §2"}},
  "data": [
    {"binder": "280.346.TSY (humanized anti-human IL-22RA antibody comprising 280.VH3-66-46 paired with 280.VK4-1-TSY, human IgG1/kappa) (antibody, V domains shown, Produced in CHO cells; also called 280.VH3-66-46/VK4-1-TSY; 280.VH3-66.46 paired with 280.IGKV4-1-TSY) VH: EVQLVESGGGLVQPGGSLRLSCAASGYSITAEYMNWVRQAPGKGLEWIGEINPSTGTTTYNQKFKGRFTISVDQSKNTAYLQMNSLRAEDTAVYYCARFDAYFDYWGQGTLVTVSS VL: not shown", "values": [
      {"measurement": "IC50, STAT3 phosphorylation assay in murine HEPA1-6 hepatoma cells stimulated with recombinant murine IL-22", "setting": "[1]", "result": 2.1, "unit": "nM"},
      {"measurement": "IC50, proliferation assay in BaF3 cells transfected with murine IL-22RA and IL-10RB, cultured with recombinant murine IL-22", "setting": "[1]", "result": 0.137, "unit": "nM"},
      {"measurement": "fold potency against the mouse parental antibody 280.46.3.4, proliferation of mouse IL-22 receptor transfected BaF3 cells", "setting": "[1]", "result": 6.2, "unit": "fold"},
      {"measurement": "IC50, STAT3 phosphorylation assay in human HepG2 hepatoma cells stimulated with recombinant human IL-22", "setting": "[2]", "result": 0.0552, "unit": "nM"},
      {"measurement": "IC50, STAT3 phosphorylation assay in normal human keratinocytes stimulated with recombinant human IL-22", "setting": "[2]", "result": 0.061, "unit": "nM"},
      {"measurement": "IC50, proliferation assay in BaF3 cells transfected with human IL-22RA and IL-10RB, cultured with recombinant human IL-22", "setting": "[2]", "result": 0.317, "unit": "nM"},
      {"measurement": "fold potency against the mouse parental antibody 280.46.3.4, STAT3 phosphorylation assay in HepG2 cells", "setting": "[2]", "result": "~5", "unit": "fold"},
      {"measurement": "fold potency against the mouse parental antibody 280.46.3.4, STAT3 phosphorylation assay in normal human keratinocytes", "setting": "[2]", "result": "~9", "unit": "fold"},
      {"measurement": "fold potency against the mouse parental antibody 280.46.3.4, proliferation of human IL-22 receptor transfected BaF3 cells", "setting": "[2]", "result": 1.7, "unit": "fold"},
      {"measurement": "binding result", "setting": "[3]", "result": "no binding"},
      {"measurement": "binding result", "setting": "[4]", "result": "no binding"},
      {"measurement": "binding result", "setting": "[5]", "result": "no binding"}
    ]}
  ]
}
